From paper PMC3035457 (Nucleic Acids Research, 2010) come the findings set out here.

The experiment concerns the target T1, MBP-GCM1(167–349) (human, UniProt Q9NP62 167-349).
T1 sequence: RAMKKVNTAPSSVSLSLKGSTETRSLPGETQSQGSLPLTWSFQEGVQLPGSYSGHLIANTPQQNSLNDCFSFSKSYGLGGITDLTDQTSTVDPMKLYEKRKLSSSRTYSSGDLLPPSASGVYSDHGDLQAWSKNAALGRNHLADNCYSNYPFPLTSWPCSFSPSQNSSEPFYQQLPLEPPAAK
Briefly: pull-down.

B1: recombinant DUSP23-FLAG (DUSP23 with a C-terminal FLAG tag) (enzyme)
chain: MGVQPPNFSWVLPGRLAGLALPRLPAHYQFLLDLGVRHLVSLTERGPPHSDSCPGLTLHRLRIPDFCPPAPDQIDRFVQIVDEANARGEAVGVHCALGFGRTGTMLACYLVKERGLAAGDAIAEIRRLRPGSIETYEQEKAVFQFYQRTK
With B1, the binding result is recorded as “binds”.
